This is an account of results in patent US20140087995A1 (published 2014).

Numbered stars: 1 amine (or outer) side, 2 acyl side, 3 side chain; on linkers, the order of the positions; unused ones are H or OH. Bridge positions count the residues as written; N and C are the ends. * marks the point of attachment. C20 diacid = O=C(O)CCCCCCCCCCCCCCCCCCC(=O)*; γGlu = O=C(O)[C@H](CCC(=O)[*:2])N[*:1]

The experiment concerns the target T1, human calcitonin receptor (human, UniProt P30988 25-474).
T1 sequence (looked up): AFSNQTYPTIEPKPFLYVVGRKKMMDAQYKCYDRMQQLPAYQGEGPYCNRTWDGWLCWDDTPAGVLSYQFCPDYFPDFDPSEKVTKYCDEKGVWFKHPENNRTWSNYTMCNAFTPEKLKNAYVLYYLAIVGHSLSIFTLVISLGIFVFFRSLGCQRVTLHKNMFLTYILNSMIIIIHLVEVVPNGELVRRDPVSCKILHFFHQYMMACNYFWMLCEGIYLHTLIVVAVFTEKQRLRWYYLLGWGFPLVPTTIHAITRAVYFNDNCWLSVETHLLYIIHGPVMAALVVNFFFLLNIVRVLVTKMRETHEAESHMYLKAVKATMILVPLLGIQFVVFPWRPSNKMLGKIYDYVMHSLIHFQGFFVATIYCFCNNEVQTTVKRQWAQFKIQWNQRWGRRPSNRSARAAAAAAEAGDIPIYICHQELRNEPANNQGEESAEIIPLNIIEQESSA
Kind of experiment: cell-based or functional assay.

B1: N^α1-[(4S)-4-carboxy-4-(19-carboxynonadecanoylamino)butanoyl]-[Arg17,Pro21,Pro27,His34]-h-amylin (peptide)
peptide: KCNTATCATQRLANFLRHSSPNFGAIPSSTNVGHNTY
modifications: alpha-amino group of N-terminal Lys1 acylated with C20 diacid via gGlu linker; disulfide Cys2-Cys7; C-terminal amide
notes: h-amylin derivative; disulfide bridge and C-terminal amide as told for human amylin; also called compound 40
As for B1, the “hCTR funct. EC50” value came to 2.68 nM.

B2: N^α1-[(4S)-4-carboxy-4-(19-carboxynonadecanoylamino)butanoyl]-[Arg17,Pro21,Pro27,Arg34]-h-amylin (peptide)
peptide: KCNTATCATQRLANFLRHSSPNFGAIPSSTNVGRNTY
modifications: alpha-amino group of N-terminal Lys1 acylated with C20 diacid via gGlu linker; disulfide Cys2-Cys7; C-terminal amide
notes: h-amylin derivative; disulfide bridge and C-terminal amide as told for human amylin; also called compound 39
For the molecule B2, the “hCTR funct. EC50” value stood at 2.52 nM.

B3: N^α1-[(4S)-4-carboxy-4-(19-carboxynonadecanoylamino)butanoyl]-[Arg17,Pro21,Pro27,Lys35]-h-amylin (peptide)
peptide: KCNTATCATQRLANFLRHSSPNFGAIPSSTNVGSKTY
modifications: alpha-amino group of N-terminal Lys1 acylated with C20 diacid via gGlu linker; disulfide Cys2-Cys7; C-terminal amide
notes: h-amylin derivative; disulfide bridge and C-terminal amide as told for human amylin; also called compound 34
For the molecule B3, the “hCTR funct. EC50” value came out at 2.62 nM.

B4: N^α1-[(4S)-4-carboxy-4-(19-carboxynonadecanoylamino)butanoyl]-[Arg17,Pro21,Pro27,Pro34,Glu35]-h-amylin (peptide)
peptide: {C20 diacid-γGlu}-KCNTATCATQRLANFLRHSSPNFGAIPSSTNVGPETY-NH2
modifications: disulfide 2-7
SMILES: CC[C@H](C)[C@H](NC(=O)[C@H](C)NC(=O)CNC(=O)[C@H](Cc1ccccc1)NC(=O)[C@H](CC(N)=O)NC(=O)[C@@H]1CCCN1C(=O)[C@H](CO)NC(=O)[C@H](CO)NC(=O)[C@H](Cc1c[nH]cn1)NC(=O)[C@H](CCCNC(=N)N)NC(=O)[C@H](CC(C)C)NC(=O)[C@H](Cc1ccccc1)NC(=O)[C@H](CC(N)=O)NC(=O)[C@H](C)NC(=O)[C@H](CC(C)C)NC(=O)[C@H](CCCNC(=N)N)NC(=O)[C@H](CCC(N)=O)NC(=O)[C@@H](NC(=O)[C@H](C)NC(=O)[C@@H]1CSSC[C@H](NC(=O)[C@H](CCCCN)NC(=O)CC[C@H](NC(=O)CCCCCCCCCCCCCCCCCCC(=O)O)C(=O)O)C(=O)N[C@@H](CC(N)=O)C(=O)N[C@@H]([C@@H](C)O)C(=O)N[C@@H](C)C(=O)N[C@@H]([C@@H](C)O)C(=O)N1)[C@@H](C)O)C(=O)N1CCC[C@H]1C(=O)N[C@@H](CO)C(=O)N[C@@H](CO)C(=O)N[C@H](C(=O)N[C@@H](CC(N)=O)C(=O)N[C@H](C(=O)NCC(=O)N1CCC[C@H]1C(=O)N[C@@H](CCC(=O)O)C(=O)N[C@H](C(=O)N[C@@H](Cc1ccc(O)cc1)C(N)=O)[C@@H](C)O)C(C)C)[C@@H](C)O
notes: h-amylin derivative; disulfide bridge and C-terminal amide as told for human amylin; also called compound 29
For B4, the “hCTR funct. EC50” value was 0.857 nM.

B5: N^α1-[2-[2-[2-[[2-[2-[2-[[(4S)-4-carboxy-4-(19-carboxynonadecanoylamino)butanoyl]amino]ethoxy]ethoxy]acetyl]amino]ethoxy]ethoxy]acetyl]-[Glu14,Arg17,Pro21,Pro27 … (peptide)
peptide: KCNTATCATQRLAEFLRHSSPNFGAIPSSTNVGSNTY
modifications: alpha-amino group of N-terminal Lys1 acylated with C20 diacid via gGlu-2xOEG linker; disulfide Cys2-Cys7; C-terminal amide
notes: h-amylin derivative; disulfide bridge and C-terminal amide as told for human amylin; also called compound 19
For B5, the “hCTR funct. EC50” value came to 5.32 nM.

B6: N^α1-[(4S)-4-carboxy-4-(19-carboxynonadecanoylamino)butanoyl]-[Glu14,Arg17,Pro21,Pro27,Arg35]-h-amylin (peptide)
peptide: {C20 diacid-γGlu}-KCNTATCATQRLAEFLRHSSPNFGAIPSSTNVGSRTY-NH2
modifications: disulfide 2-7
SMILES: CC[C@H](C)[C@H](NC(=O)[C@H](C)NC(=O)CNC(=O)[C@H](Cc1ccccc1)NC(=O)[C@H](CC(N)=O)NC(=O)[C@@H]1CCCN1C(=O)[C@H](CO)NC(=O)[C@H](CO)NC(=O)[C@H](Cc1c[nH]cn1)NC(=O)[C@H](CCCNC(=N)N)NC(=O)[C@H](CC(C)C)NC(=O)[C@H](Cc1ccccc1)NC(=O)[C@H](CCC(=O)O)NC(=O)[C@H](C)NC(=O)[C@H](CC(C)C)NC(=O)[C@H](CCCNC(=N)N)NC(=O)[C@H](CCC(N)=O)NC(=O)[C@@H](NC(=O)[C@H](C)NC(=O)[C@@H]1CSSC[C@H](NC(=O)[C@H](CCCCN)NC(=O)CC[C@H](NC(=O)CCCCCCCCCCCCCCCCCCC(=O)O)C(=O)O)C(=O)N[C@@H](CC(N)=O)C(=O)N[C@@H]([C@@H](C)O)C(=O)N[C@@H](C)C(=O)N[C@@H]([C@@H](C)O)C(=O)N1)[C@@H](C)O)C(=O)N1CCC[C@H]1C(=O)N[C@@H](CO)C(=O)N[C@@H](CO)C(=O)N[C@H](C(=O)N[C@@H](CC(N)=O)C(=O)N[C@H](C(=O)NCC(=O)N[C@@H](CO)C(=O)N[C@@H](CCCNC(=N)N)C(=O)N[C@H](C(=O)N[C@@H](Cc1ccc(O)cc1)C(N)=O)[C@@H](C)O)C(C)C)[C@@H](C)O
notes: h-amylin derivative; disulfide bridge and C-terminal amide as told for human amylin; also called compound 16
Regarding B6, the “hCTR funct. EC50” value came out at 2.21 nM.
